Experimental data taken from the supplement of paper PMC9170038.

Tested on: MS2 coat protein
Experiment: apparent KD of MS2 coat protein; designed switch direction (-1 OFF switch, 1 ON switch): 1; higher = weaker reporter binding
How it was run: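 Designed RNA switches with common flanks were transcribed on Illumina chips by stalled E. coli RNA polymerase and titrated with SNAP-549-labelled MS2 coat protein, from 0.7 or 1.5 nM doubling to 3 µM, in Tris-HCl pH 7.5 buffer with KCl, MgCl2, BSA, DTT, tRNA and Tween-20. Steps lasted 0.8–1.5 h (lowest) to 10–20 min (highest). Titrations ran without input, with 200 uM small-molecule ligand, or with an oligonucleotide input. Normalised cluster fluorescence was curve-fitted, and apparent KD is the per-design median over clusters.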

[1] = Eterna round: R95, input ligand: FMN 200 uM
[2] = Eterna round: R95, input ligand: microRNA oligo, concentration not stated
[3] = Eterna round: R95, input ligand: none
[4] = input ligand: microRNA oligo, concentration not stated

With “GACAAUCUAUCUGAGGAUAUCAUGAGAAGAACAUGAGGAUCACCCAUGUGCAGGAAAACUGCAUAUGAGAAGGCAGAUAGAUUGA [Mat - Same State 2 - Mod - D16] (puzzle: Same State 2)” the “apparent KD of MS2 coat protein” value [1] was 43.7 nM, the “apparent KD of MS2 coat protein” value [2] was 1600 nM and the “apparent KD of MS2 coat protein” value [3] was 1820 nM.
“AUAAAUAACACAGGAUAUCCGCACGAGUAGUACGGAGAAGGGUGAACGUCGGCUCUCGCCAACAUGAGGAUCACCCAUGUAAAA [Usesesana] (Eterna round: R96, puzzle: Same State NG 1)” was tested, and the “apparent KD of MS2 coat protein” value (input ligand: FMN 200 uM) was 1160 nM, the “apparent KD of MS2 coat protein” value [4] was 432 nM and the “apparent KD of MS2 coat protein” value (input ligand: none) was 734 nM.
“CUGAGCAGUCAAGGAUAUCACGUCGUUUAGACGUGAGAAGGUGAUUAAUACAUGAGGAUCACCCAUGUAAUACAUGAAGCUCAG [SSNG1/11-A3] (Eterna round: R96, puzzle: Same State NG 1)” was tested, and the “apparent KD of MS2 coat protein” value (input ligand: FMN 200 uM) was 20.9 nM, the “apparent KD of MS2 coat protein” value [4] was 30.9 nM and the “apparent KD of MS2 coat protein” value (input ligand: none) was 42.5 nM.
In the case of “GUAGCAUGCAGCGAGGAUAUUCAUAUUAAAACAUGAGGAUCACCCAUGUAGGCCAAAAGGCCUUGGGAGAAGGCGCACAUGCUAC [Xeonanis - 20] (puzzle: Same State 2)”, the “apparent KD of MS2 coat protein” value [1] is reported as 31.2 nM, the “apparent KD of MS2 coat protein” value [2] is reported as 527 nM and the “apparent KD of MS2 coat protein” value [3] is reported as 717 nM.
“UUGCUCAUGUAAGGAUAUGCAGCCGUUUCGGCUGCAGAAGGUACUAUAAUACAUGAGGAUCACCCAUGUCUCUAUUAUUUAGUG [salish99_SSNG1_r04_924] (Eterna round: R96, puzzle: Same State NG 1)” was tested, and the “apparent KD of MS2 coat protein” value (input ligand: FMN 200 uM) was 78.6 nM, the “apparent KD of MS2 coat protein” value [4] was 43.8 nM and the “apparent KD of MS2 coat protein” value (input ligand: none) was 59.8 nM.
In the case of “CGUGGGUGGCUGGAGGAUAUUCGAGUGGUAACAUGAGGAUCACCCAUGUGUCGCGCGGUACAUGAGGAGAAGGCUGGCGGCCGGC (puzzle: Same State 2)”, the “apparent KD of MS2 coat protein” value [1] is reported as 225 nM, the “apparent KD of MS2 coat protein” value [2] is reported as 40.1 nM and the “apparent KD of MS2 coat protein” value [3] is reported as 76.2 nM.
For “AGUCCAGCCAGAGCUGGACAAAAGCAUGUACAUGAGGAUCACCCAUGUCAUGUACAAGCUUUUUGCUCGUCUUAAAA [Mat - hsa-mir-208a - Mod of JL - D2] (puzzle: Sensor for hsa-mir-208a)”, the “apparent KD of MS2 coat protein” value [1] was 415 nM, the “apparent KD of MS2 coat protein” value [2] was 13.7 nM and the “apparent KD of MS2 coat protein” value [3] was 523 nM.
In the case of “GUAGCAUACCGAGGAUAUUCAUAUUAUAACAUGAGGAUCACCCAUGUAGGCCGAUUACGGCCUUGGGAGAAGGCGGAAUGCUAC [Xeonanis - 20 Mod19] (Eterna round: R96, puzzle: Same State NG 2)”, the “apparent KD of MS2 coat protein” value (input ligand: FMN 200 uM) is reported as 27.9 nM, the “apparent KD of MS2 coat protein” value [4] is reported as 229 nM and the “apparent KD of MS2 coat protein” value (input ligand: none) is reported as 342 nM.
In the case of “GGUGUACAUGAGGAUCACCCAUGUCGACCGCUCACAGGAUAUUUAUUACAAACUGGUAGCGGAGAAGGGUGAGGGC [Maarraar] (puzzle: Same State 1)”, the “apparent KD of MS2 coat protein” value [1] is reported as 36.4 nM, the “apparent KD of MS2 coat protein” value [2] is reported as 32.6 nM and the “apparent KD of MS2 coat protein” value [3] is reported as 37.6 nM.
For “CUGAGCAGUCAAGGAUAUCACGUCGAAUAGACGUGAGAAGGUGAUUAAUACAUGAGGAUCACCCAUGUAAUACAUGAAGCUCAG [SSNG1/11-A1] (Eterna round: R96, puzzle: Same State NG 1)”, the “apparent KD of MS2 coat protein” value (input ligand: FMN 200 uM) was 25.6 nM, the “apparent KD of MS2 coat protein” value [4] was 33.5 nM and the “apparent KD of MS2 coat protein” value (input ligand: none) was 46.6 nM.
For “CUGCUCGUGUGAGGAUAUGCCGCCGUUUCGGCUGCAGAAGGUGCUACGUAACAUGAGGAUCACCCAUGUCUCUGUUGUUUCGUU [salish99_SSNG1_r04_949] (Eterna round: R96, puzzle: Same State NG 1)”, the “apparent KD of MS2 coat protein” value (input ligand: FMN 200 uM) was 37.4 nM, the “apparent KD of MS2 coat protein” value [4] was 35.2 nM and the “apparent KD of MS2 coat protein” value (input ligand: none) was 34 nM.
With “GCGGAGAGGUCAGGAUAUCCAUGGAAGACACAUGAGGAUCACCCAUGUGGGAGGGAAACCAGGAGGGAGAAGGGACCGGGACGC [ssng2 v2 c] (Eterna round: R96, puzzle: Same State NG 2)” the “apparent KD of MS2 coat protein” value (input ligand: FMN 200 uM) was 11.4 nM, the “apparent KD of MS2 coat protein” value [4] was 10.3 nM and the “apparent KD of MS2 coat protein” value (input ligand: none) was 13.3 nM.
“CUGCUCGUGUGAGGAUAUGCCGCCGUUUCGGCUGCAGAAGGUGCUACGUUACAUGAGGAUCACCCAUGUCUCUGUUGUUUCGUG [salish99_SSNG1_r04_944] (Eterna round: R96, puzzle: Same State NG 1)” was tested, and the “apparent KD of MS2 coat protein” value (input ligand: FMN 200 uM) was 20.7 nM, the “apparent KD of MS2 coat protein” value [4] was 15.8 nM and the “apparent KD of MS2 coat protein” value (input ligand: none) was 22.8 nM.
For “UGGUACAUGGGAGGAUAUGGGCAAGAGACAUGAGGAUCACCCAUGUAUUAAAAGCCGAAAGGCAUCUAGAAGGCCCAUGUACCU [JL SSNG1 3.86] (Eterna round: R96, puzzle: Same State NG 2)”, the “apparent KD of MS2 coat protein” value (input ligand: FMN 200 uM) was 13.3 nM, the “apparent KD of MS2 coat protein” value [4] was 55.9 nM and the “apparent KD of MS2 coat protein” value (input ligand: none) was 86.7 nM.
